The record followed here is PMC4596477, “Interaction of Myosin Phosphatase Target Subunit (MYPT1) with Myosin Phosphatase-RhoA Interacting Protein (MRIP): A Role of Glutamic Acids in the Interaction” (PLoS ONE, 2015).

Data set [1] can be described thus: AUC sedimentation velocity of MRIP peptides alone (molar mass, sedimentation coefficient, oligomeric state). It is filed as physicochemical. From the text: The RMSD of the fit was 0.008.
(§1) The cDNA fragment encoding MRIP peptides were amplified using a full-length MRIP cDNA as a template with the following primer pairs: MRIP^545-878, 5’-[…]/5’[…]; MRIP^724-878, 5’-[…]/5’-[…]; MRIP^724-837, 5’-[…]/5’-[…]. The PCR products were ligated into pCR2.1-TOPO using the TA cloning system and sequenced in both directions. The IMPACT™ (Intein Mediated Purification with an Affinity Chitin-binding Tag) Kit (New England BioLabs) was used to express peptides in bacteria to obtain tag-free peptides. The PCR amplicon encoding MRIP peptides were fused in frame to the chitin binding domain of pTYB12 vector utilizing the NdeI/EcoRI restriction sites. The expression vectors for the MYPT1 peptides, CCLR (residues 924–1030), CC (residues 924–990), and LR (residues 991–1030) were constructed as described: In the reference literature, CCLR and LR were named CCLZ and LZ, respectively. Recombinant peptides were produced in Escherichia coli strain BL21 (DE3) and purified using chitin beads according to the manufacturer's protocol. For further purification, the eluent from chitin beads was loaded on a Vydac C8 reversed phase column and subjected to HPLC using an acetonitrile gradient. Purity and identity of the peptides were confirmed by polyacrylamide gel electrophoresis (PAGE) and mass spectrometry. For the mutagenesis study of LR, the wild-type and mutant LR peptides were synthesized, purified by reverse-phase HPLC, and lyophilized to dryness at the peptide core in Boston Biomedical Research Institute.
Sedimentation velocity experiments were done on a Beckman Instruments Optima XL-I analytical ultracentrifuge equipped with Rayleigh optics. The cells were equipped with sapphire windows and 12 mm charcoal-filled Epon centerpieces. Apparent sedimentation coefficient distribution patterns were computed by the time derivative method. Peptides were dialyzed against 50 mM potassium phosphate buffer (pH 7.4) containing 100 mM KCl, and 1 mM DTT at 4°C overnight and then subjected to AUC at 50,000 rpm and 20°C. Molar mass was computed from sedimentation velocity profiles using SedAnal, which uses a nonlinear least-squares curve fitting algorithm to fit data to solutions of the differential equation (the Lamm equation) describing sedimentation. Fits were performed on time difference data to remove the time-independent systematic baseline components. Values of s and D produced by the fitting procedure were substituted into the Svedberg equation to obtain the molar mass of the protein, M: M=RT/(1−ν¯ρ)s20,wo/D20,wo where ρ is the density of the buffer and ν¯ is the partial specific volume of the protein. Sednterp was employed to compute values of ρ and ν¯ from the amino acid sequence.

For data set [2], the system named is CCLR. Kind of data set: AUC interaction of MRIP peptides with MYPT1 peptide CCLR (residues 924–1030). It is filed as binding. As to conditions: equimolar mixtures (MRIP^545-878 14 μM each; MRIP^724-878 30 μM each; MRIP^724-837 67 μM each) and 3-, 9-fold dilutions, pH 7.4, 100 mM KCl, 20°C. The procedure:
AUC was performed to examine the interactions of MRIP^545-878, MRIP^724-878, or MRIP^724-837 individually with the MYPT1 peptide (residues 924–1030) containing a putative coiled coil domain (CC) and the leucine repeat region (LR), designated as CCLR.
Fig 3 All MRIP peptides bind to the C-terminal region of MYPT1, CCLR (residues 924–1030). Concentration-normalized time derivative g(s*) graphs of the MRIP peptides by themselves and in equimolar mixtures: Lines, CCLR (30 μM); +, individual MRIP peptides by themselves (MRIP^545-878, 14 μM; MRIP^724-878, 50 μM; MRIP^724-837, 67 μM); black filled-in circles, original equimolar mixtures (MRIP^545-878, 14 μM each; MRIP^724-878, 30 μM each; MRIP^724-837, 67 μM each); open circles, 3-fold dilutions; gray filled-in circles, 9-fold dilutions.
as §1, with “For the mutagenesis study of LR, the wild-type and mutant LR peptides were synthesized, purified by reverse-phase HPLC, and lyophilized to dryness at the peptide core in Boston Biomedical Research Institute.” left out

Data set [3] concerns the target LR. Kind of data set: SPR, MRIP^724-878 as analyte over immobilized LR. It is filed as binding. To be noted: Biacore 3000, 25°C, analyte MRIP^724-878 (dimeric) 85.6–0.7 μM, LR immobilized (244.8 RU), nebulin-derived peptide reference, 50 mM potassium phosphate pH 7.4, 100 mM KCl, steady-state affinity, mean and standard deviation, 6 experiments. The procedure:
Analytes CCLR, CC, LR: Interactions between analytes, CCLR (167–1 μM), CC (318–10 μM), and LR (569–5 μM) with immobilized ligand, MRIP^724-878 (1800 RU) after correction for nonspecific binding using G-actin (2230 RU). Shown is a representative out of 9 experiments for CCLR and 8 for LR in each, duplicates or triplicates. Insets show fittings of steady-state affinity. Ligand LR: Interaction of analyte, MRIP^724-878 (85.6–0.7 μM) with immobilized ligand, LR (244.8 RU) after correction for nonspecific binding using a nebulin-derived peptide (600 RU). Shown is a representative out of 6 experiments.
This could be explained by the fact that free, solution-based MRIP^724-878 might have preserved homodimers better than the amine coupled. Consequently, we speculated that the MRIP^724-878 dimer might have higher MYPT1-binding affinity than its monomer.
Binding analyses of SPR were conducted on a Biacore 3000 (GE Healthcare) at 25°C. Sensor chips and reagents for immobilization (1-ethyl-3-(3-dimethylaminopropyl) carbodiimide, N-hydroxyl-succinimide, and ethanolamine) were purchased from GE Healthcare. Peptides were immobilized onto a CM5 sensor chip at 232–5841 resonance units (RU) using amine coupling. Binding studies were done using two-fold serial dilutions of the peptides in 50 mM potassium phosphate buffer (pH 7.4) containing 100 mM KCl. […]

Data set [4] in a line: AUC of MYPT1 peptides alone (concentration dependence, self-association). It is filed as physicochemical. As to conditions: CC alone, 107 μM and 3-, 9-fold dilutions, MRIP^724-878 alone, 50 μM and 3-, pH 7.4, 20°C. From the text:
To determine the minimal MRIP-binding region of MYPT1, AUC was employed to examine interactions between sub-domains of CCLR, CC (residues 924–990) and LR (residues 991–1030) with MRIP^724-878 (Fig 4A). CC is the putative coiled coil domain and LR contains 16 upstream amino acid residues (residues 991–1006) in addition to the leucine repeat (residues 1007–1028). MRIP^724-878 was chosen because of its good fit to a single component, single-species model. […] Global fitting of the mixture to a two-component model produced a good fit and the RMSD of the fit was 0.010 (Fig 4B; Fitting of CC).
Fig 4 LR contains sufficient residues for the MYPT1/MRIP interaction. […] CC; Concentration-normalized time derivative g(s*) plots of CC, MRIP^724-878, and equimolar mixtures of the two peptides: Black filled-in circles, an original CC alone (107 μM); dark gray filled-in circles, a 3-fold dilution of CC alone; light gray filled-in circles, a 9-fold dilution of CC alone; black filled-in triangles, an original MRIP^724-878 alone (50 μM); dark gray filled-in triangles, a 3-fold dilution of MRIP^724-878 alone; light gray filled-in triangles, a 9-fold dilution of MRIP^724-878 alone; a black line, an original equimolar mixture of MRIP^724-878/CC (50 μM each): a dark gray line, a 3-fold dilution of the mixture; a light gray line, a 9-fold dilution of the mixture. […]

For data set [5] the following is noted: GST-tag, expressed in bacteria, after affinity purification.
Method: Sedimentation velocity was performed over a range of concentrations of MRIP^545-878 (1.5–13.6 μM), MRIP^724-878 (4.7–42.3 μM), and MRIP^724-837 (7.5–67.1 μM) (Fig 2A).
To elucidate the stoichiometries of the MRIP peptides, the SedAnal program was used for curve fitting (Fig 2B). […] Diffusion contains important information about the shape of the molecule and that information is used in the data analysis. The recovery of samples after centrifugation is essentially 99% of the loading materials. […] The root mean square deviation (RMSD) of the fit was 0.010. […] The RMSD of the fit was 0.008.
We expressed and purified the MRIP peptide (residues 545–929) and the full-length MRIP protein using a chitin-binding tag and a GST-tag, respectively in bacteria.

B1: MRIP^724-878: recombinant tag-free MRIP peptide, residues 724–878; CC2-CC4 (protein)
chain: CERGFAAMEETHQKKIEDLQRQHQRELEKLREEKDRLLAEETAATISAIEAMKNAHREEMERELEKSQRSQISSVNSDVEALRRQYLEELQSVQRELEVLSEQYSQKCLENAHLAQALEAERQALRQCQRENQELNAHNQELNNRLAAEITRLRT
modifications: left off: chitin-binding domain (IMPACT kit, pTYB12), N-terminal, cleaved
notes: recombinant tag-free MRIP peptide, residues 724–878; CC2-CC4
In general, Kd refers to the concentration at which binding is half-saturated. Lower therefore signals a tighter complex. With B1, in data set [1] (AUC sedimentation velocity, SedAnal global fit to single component, single-species ideal model, 4.7–42.3 μM, 50 mM potassium phosphate pH 7.4, 100 mM KCl, 1 mM DTT, 20°C, CL 0.95), the molar mass is recorded as 38.2±0.3 kDa. In addition, the “oligomeric state in solution” value in data set [1] (AUC sedimentation velocity, pH 7.4, 100 mM KCl, 20°C) was “forms a tight dimer in solution”. In data set [1] (AUC sedimentation velocity, single component, single-species ideal model, 4.7–42.3 μM, pH 7.4, 100 mM KCl, 20°C, CL 0.95), this molecule had a sedimentation coefficient of 2.007±0.002 S. The “concentration dependence of g(s*) curves” value in data set [1] (AUC, MRIP^545-878 1.5–13.6 μM, MRIP^724-878 4.7–42.3 μM, MRIP^724-837 7.5–67.1 μM, pH 7.4, 20°C) is “no-concentration dependence and the presence of one species in solution”; in data set [4], “superimposable, indicating concentration-independence”. Besides, the “binding to CCLR (shift in g(s*) curves)” value in data set [2] is on record as “bind to CCLR”. For the same molecule, the Kd in data set [3] was 40 ± 19 µM.

B2: GST-tagged full-length MRIP: full-length MRIP protein with GST-tag, expressed in bacteria (protein, UniProt Q6WCQ1 1-1025, looked up)
chain: MSAAKENPCRKFQANIFNKSKCQNCFKPRESHLLNDEDLTQAKPIYGGWLLLAPDGTDFDNPVHRSRKWQRRFFILYEHGLLRYALDEMPTTLPQGTINMNQCTDVVDGEGRTGQKFSLCILTPEKEHFIRAETKEIVSGWLEMLMVYPRTNKQNQKKKRKVEPPTPQEPGPAKVAVTSSSSSSSSSSSIPSAEKVPTTKSTLWQEEMRTKDQPDGSSLSPAQSPSQSQPPAASSLREPGLESKEEESAMSSDRMDCGRKVRVESGYFSLEKTKQDLKAEEQQLPPPLSPPSPSTPNHRRSQVIEKFEALDIEKAEHMETNAVGPSPSSDTRQGRSEKRAFPRKRDFTNEAPPAPLPDASASPLSPHRRAKSLDRRSTEPSVTPDLLNFKKGWLTKQYEDGQWKKHWFVLADQSLRYYRDSVAEEAADLDGEIDLSACYDVTEYPVQRNYGFQIHTKEGEFTLSAMTSGIRRNWIQTIMKHVHPTTAPDVTSSLPEEKNKSSCSFETCPRPTEKQEAELGEPDPEQKRSRARERRREGRSKTFDWAEFRPIQQALAQERVGGVGPADTHEPLRPEAEPGELERERARRREERRKRFGMLDATDGPGTEDAALRMEVDRSPGLPMSDLKTHNVHVEIEQRWHQVETTPLREEKQVPIAPVHLSSEDGGDRLSTHELTSLLEKELEQSQKEASDLLEQNRLLQDQLRVALGREQSAREGYVLQATCERGFAAMEETHQKKIEDLQRQHQRELEKLREEKDRLLAEETAATISAIEAMKNAHREEMERELEKSQRSQISSVNSDVEALRRQYLEELQSVQRELEVLSEQYSQKCLENAHLAQALEAERQALRQCQRENQELNAHNQELNNRLAAEITRLRTLLTGDGGGEATGSPLAQGKDAYELEVLLRVKESEIQYLKQEISSLKDELQTALRDKKYASDKYKDIYTELSIAKAKADCDISRLKEQLKAATEALGEKSPDSATVSGYDIMKSKSNPDFLKKDRSCVTRQLRNIRSKSVIEQVSWDT
modifications: full-length GST tag
In the case of B2, the precipitation result in data set [5] is recorded as “precipitated after affinity purification”.
